Laboratory results taken from the supplement of paper PMC9233669.
Variants at the floor of the assay were thinned out.

Columns and labels:
biotinyl-Val-oxazolone = assay: self-aminoacylation, catalytic enhancement (BVO) (fold over background); higher = more active; k-Seq, kA / k0A0; sequences stand for … in GGGAAUGGAUCCACAUCUACGAAUUC…UUCACUGCAGACUUGACGAAGCUG
How it was run: (§1)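 The uncatalyzed rate is the low-activity peak of a bimodal Gaussian fit, and catalytic enhancement is median kA divided by it. The kA values came from pseudo-first-order fits, with 1000 bootstraps, of per-sequence fraction reacted measured by streptavidin capture, triplicate qPCR and Illumina sequencing. Mutagenized RNA pools with a 21-nt variable region (0.43 μM) were reacted with each biotinyl-aminoacyl-oxazolone at 2–1250 μM in 50 μL HEPES/NaCl/KCl/MgCl2/CaCl2 buffer with 5% acetonitrile, pH 6.9–7.0, for 90 minutes at room temperature.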

biotinyl-Ile-oxazolone = assay: self-aminoacylation, catalytic enhancement (BIO) (fold over background); higher = more active; k-Seq, kA / k0A0; sequences stand for … in GGGAAUGGAUCCACAUCUACGAAUUC…UUCACUGCAGACUUGACGAAGCUG
How it was run: as §1

biotinyl-Trp-oxazolone = assay: self-aminoacylation, catalytic enhancement (BWO) (fold over background); higher = more active; k-Seq, kA / k0A0; sequences stand for … in GGGAAUGGAUCCACAUCUACGAAUUC…UUCACUGCAGACUUGACGAAGCUG
How it was run: as §1

biotinyl-Leu-oxazolone = assay: self-aminoacylation, catalytic enhancement (BLO) (fold over background); higher = more active; k-Seq, kA / k0A0; sequences stand for … in GGGAAUGGAUCCACAUCUACGAAUUC…UUCACUGCAGACUUGACGAAGCUG
How it was run: as §1

biotinyl-Met-oxazolone = assay: self-aminoacylation, catalytic enhancement (BMO) (fold over background); higher = more active; k-Seq, kA / k0A0; sequences stand for … in GGGAAUGGAUCCACAUCUACGAAUUC…UUCACUGCAGACUUGACGAAGCUG
How it was run: as §1

biotinyl-Phe-oxazolone = assay: self-aminoacylation, catalytic enhancement (BFO) (fold over background); higher = more active; k-Seq, kA / k0A0; sequences stand for … in GGGAAUGGAUCCACAUCUACGAAUUC…UUCACUGCAGACUUGACGAAGCUG
How it was run: as §1

Row | Sequence | self-aminoacylation (biotinyl-Val-oxazolone) | self-aminoacylation (biotinyl-Ile-oxazolone) | self-aminoacylation (biotinyl-Trp-oxazolone) | self-aminoacylation (biotinyl-Leu-oxazolone) | self-aminoacylation (biotinyl-Met-oxazolone) | self-aminoacylation (biotinyl-Phe-oxazolone)
1 | CCACACUUCAAGCUAUUGGUC [Fam1B.1 aminoacylation ribozyme variant] | 0.759 | 0.797 | 0.661 | 0.595 | 0.643 | 0.896
2 | AUUCACCUUGAUCAUCGGGUG [Fam2.2 aminoacylation ribozyme variant] | 2.6 | 2.22 | 4.07 | 3.83 | 3.26 | 19
3 | AUUACCCUGGUCAUCGAGGGA [Fam2.1 aminoacylation ribozyme variant] | 2.99 | 2.71 | 5.46 | 5.66 | 5.93 | 9.56
4 | AAGUUUGCUAAUAGUCGGAAG [Fam3.1 aminoacylation ribozyme variant] | 1.03 | 1.13 | 4.58 | 0.934 | 1.16 | 14.8
5 | CUACUUCAAACAAUUAGUCUG [Fam1A.1 aminoacylation ribozyme variant] | 0.901 | 0.891 | 0.684 | 0.712 | 0.662 | 1.04
6 | AUUACCCUGGUCGUCUAGUGA [Fam2.1 aminoacylation ribozyme variant] | 1.04 | 1.15 | 0.905 | 1.53 | 1.37 | 2.09
7 | AUUCACUAAGGUCAUCGGGUG [Fam2.2 aminoacylation ribozyme variant] | 3.66 | 3.57 | 5.99 | 6.72 | 5.33 | 37.7
8 | CUGCACCUAGGUCAUCGGGUG [Fam2.2 aminoacylation ribozyme variant] | 5.11 | 3.76 | 6.48 | 7.81 | 7.52 | 60
9 | AUUACCCAGAUCAUCGAGUGA [Fam2.1 aminoacylation ribozyme variant] | 2.99 | 3.1 | 7.37 | 5 | 5.55 | 15.2
10 | AUUACACUGGUCAUCGAGUGA [Fam2.1 aminoacylation ribozyme variant] | 3.09 | 3.17 | 6.94 | 5.86 | 5.44 | 19.7
11 | ACACACGUCAAGCAAUCGGUC [Fam1B.1 aminoacylation ribozyme variant] | 2.04 | 1.88 | 2.55 | 2.14 | 1.96 | 3.48
12 | AUUACCCUGGCCAUCGAGUCA [Fam2.1 aminoacylation ribozyme variant] | 0.826 | 0.78 | 0.66 | 0.727 | 0.714 | 0.47
13 | CUACUUCAAAAUAUCGGUCUG [Fam1A.1 aminoacylation ribozyme variant] | 0.911 | 1.01 | 0.973 | 0.798 | 0.936 | 1.01
14 | AUUCACCUAGGUGAUCCGGUG [Fam2.2 aminoacylation ribozyme variant] | 3.03 | 3.26 | 3.31 | 4.06 | 5.12 | 22.1
15 | AAGUUUGUUAAUAGUCUCAAG [Fam3.1 aminoacylation ribozyme variant] | 1.15 | 1.22 | 1.23 | 1.02 | 1.23 | 1.62
16 | CCACACUUCAAUCAAUAGGUC [Fam1B.1 aminoacylation ribozyme variant] | 0.646 | 0.573 | 0.511 | 0.517 | 0.569 | 1.11
17 | AUUCAACUAGGUCAUCGGGUU [Fam2.2 aminoacylation ribozyme variant] | 1.66 | 1.5 | 1.8 | 1.95 | 1.91 | 4.65
18 | CCACUUCAAACAAUCGGCCUG [Fam1A.1 aminoacylation ribozyme variant] | 4.05 | 4.3 | 145 | 7.46 | 4.68 | 425
19 | AAGUUUCCUAAUAGUCGUAAG [Fam3.1 aminoacylation ribozyme variant] | 1.07 | 1.2 | 1.27 | 1.07 | 1.18 | 2.58
20 | AGUCACCUAGGUCAGCGGGUG [Fam2.2 aminoacylation ribozyme variant] | 3.77 | 4.2 | 5.59 | 5.54 | 4.31 | 39.5
21 | AAGUUUGCUAAGAGACGCAAG [Fam3.1 aminoacylation ribozyme variant] | 0.76 | 0.661 | 0.74 | 0.967 | 0.544 | 1.28
22 | CUACUUCAAAUAAUGGGUCUG [Fam1A.1 aminoacylation ribozyme variant] | 0.814 | 0.875 | 0.583 | 1.01 | 0.956 | 0.624
23 | CCACACGUCAAUCAAUCGGUC [Fam1B.1 aminoacylation ribozyme variant] | 1.1 | 1.05 | 0.926 | 0.966 | 1.09 | 1.24
24 | CCACACUUCAAGCAAUCUAUC [Fam1B.1 aminoacylation ribozyme variant] | 0.683 | 0.557 | 0.287 | 0.533 | 0.422 | 0.891
25 | AUUACGUUGGUCAUCGAGUGA [Fam2.1 aminoacylation ribozyme variant] | 3.18 | 3.1 | 5.9 | 4.86 | 4.23 | 11.7
26 | AGUACCCUGGUCAUCAAGUGA [Fam2.1 aminoacylation ribozyme variant] | 1.75 | 1.61 | 2.89 | 2.35 | 2.28 | 3.2

Row | Sequence | self-aminoacylation (biotinyl-Val-oxazolone) | self-aminoacylation (biotinyl-Ile-oxazolone) | self-aminoacylation (biotinyl-Trp-oxazolone) | self-aminoacylation (biotinyl-Leu-oxazolone) | self-aminoacylation (biotinyl-Met-oxazolone) | self-aminoacylation (biotinyl-Phe-oxazolone)
27 | AUUACCCAGGUCAUCGAUUGA [Fam2.1 aminoacylation ribozyme variant] | 0.759 | 0.872 | 0.511 | 0.826 | 0.825 | 0.642
28 | GAACACUUCAAGCAAUCGGUC [Fam1B.1 aminoacylation ribozyme variant] | 2.03 | 2.05 | 18.6 | 1.96 | 1.53 | 23.3
29 | ACUACCCUGGUCAUGGAGUGA [Fam2.1 aminoacylation ribozyme variant] | 2.59 | 2.86 | 3.33 | 3.32 | 3.35 | 11.6
30 | CCACACUACAAUCAAUCGGUC [Fam1B.1 aminoacylation ribozyme variant] | 0.877 | 0.797 | 0.811 | 0.688 | 0.663 | 1.18
31 | AUUACCCUGAACAUCGAGUGA [Fam2.1 aminoacylation ribozyme variant] | 3.35 | 3.4 | 8.05 | 6.97 | 6.65 | 24.2
32 | AAGUUUGCGAAAAGUCGCAAG [Fam3.1 aminoacylation ribozyme variant] | 1.43 | 1.46 | 1.3 | 1.8 | 1.8 | 2.82
33 | AAGUUAGCAAAUAGUCGCAAG [Fam3.1 aminoacylation ribozyme variant] | 1.23 | 1.42 | 1.36 | 1.32 | 1.44 | 2.37
34 | AUUACCCUGGUCAUCUAGUGC [Fam2.1 aminoacylation ribozyme variant] | 1 | 0.835 | 0.68 | 1.08 | 1.06 | 1.27
35 | CUACCUCAAACAAUCAGUCUG [Fam1A.1 aminoacylation ribozyme variant] | 0.647 | 0.649 | 0.702 | 0.671 | 0.588 | 1.74
36 | AAGUUUGCUAAUAAUCGCAUG [Fam3.1 aminoacylation ribozyme variant] | 0.926 | 0.866 | 1.15 | 0.932 | 1.05 | 1.21
37 | CUACACUUCAUGCAAUCGGUC [Fam1B.1 aminoacylation ribozyme variant] | 0.693 | 0.707 | 0.496 | 0.516 | 0.623 | 0.689
38 | CUAUUUCGAACAAUCGGUCUG [Fam1A.1 aminoacylation ribozyme variant] | 0.793 | 0.814 | 0.67 | 0.697 | 0.799 | 0.664
39 | AUUCACCUAGGUCCGCGGGUG [Fam2.2 aminoacylation ribozyme variant] | 4.58 | 5.39 | 7.69 | 8.76 | 9.13 | 50.3
40 | CCCCACUUCAAGCAAUCGGUU [Fam1B.1 aminoacylation ribozyme variant] | 3.68 | 2.66 | 16.9 | 4.7 | 3.35 | 12.7
41 | AUUCACCUAGGGCAUCGGGCG [Fam2.2 aminoacylation ribozyme variant] | 4.35 | 3.54 | 2.7 | 4.74 | 3.47 | 15.7
42 | AAGUUUUCUAAUAGUCGCAAG [Fam3.1 aminoacylation ribozyme variant] | 1.31 | 1.51 | 1.58 | 1.32 | 1.23 | 2.64
43 | ACUACGCUGGUCAUCGAGUGA [Fam2.1 aminoacylation ribozyme variant] | 4.04 | 4.74 | 7.58 | 5.5 | 5.77 | 35.1
44 | CUACUUCGAAGAAUCGGUCUG [Fam1A.1 aminoacylation ribozyme variant] | 0.839 | 0.875 | 0.567 | 0.757 | 0.933 | 0.287
45 | ACUUUUGCUAAUAGUCGCAAG [Fam3.1 aminoacylation ribozyme variant] | 2.57 | 2.75 | 2.56 | 2.68 | 2.59 | 3.71
46 | AUUACCCCGGUCAUGGAGUGA [Fam2.1 aminoacylation ribozyme variant] | 3.07 | 2.92 | 6.2 | 5.28 | 4.97 | 22.6
47 | CGAUUUCAAACAAUCGGUCUG [Fam1A.1 aminoacylation ribozyme variant] | 1.66 | 1.74 | 5.97 | 1.63 | 1.46 | 16.4
48 | ACGCACCUAGGUCAUCGGGUG [Fam2.2 aminoacylation ribozyme variant] | 3.55 | 3.42 | 4.93 | 3.1 | 4.23 | 29
49 | AUUACCCUUGUCAUUGAGUGA [Fam2.1 aminoacylation ribozyme variant] | 4.34 | 4.11 | 10.6 | 8.5 | 8.1 | 34
50 | ACUCACCUACGUCAUCGGGUG [Fam2.2 aminoacylation ribozyme variant] | 4.69 | 3.98 | 6.64 | 7.79 | 6.25 | 57.3
51 | CCACACUUCAUGCAAUCGCUC [Fam1B.1 aminoacylation ribozyme variant] | 1.06 | 0.99 | 0.588 | 1.1 | 1.36 | 0.603
